# Test results taken from the supplement of paper PMC9116672.
# ± gives the standard deviation of the averaged measurements or the uncertainty stated by the source.
# What was measured:
# [1] = duplex melting temperature (HRM, EvaGreen); higher = more stable duplex
# Description: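 Listed DNA strand annealed 1:1 with its complementary strand (95 °C 5 min, 0.1 °C/s to 20 °C). Melted in 1x NNE buffer (500 mM NaCl, 10 mM Na2HPO4, 1 mM EDTA, pH 7.0) with 1x EvaGreen on a LightCycler96 (37 to 97 °C, 0.1 °C/s). Tm is the peak of -dF/dT at the stated total duplex concentration; 4 replicates are averaged. PS oligos are non-stereospecific (Rp/Sp mixtures).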
# [2] = duplex formation enthalpy ΔH (Van't Hoff fit of HRM Tm); higher = less exothermic duplex formation; conditions: temperature for dG: 50 °C, NaCl: 500 mM (unadjusted)
# Description: (§1)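 Duplex of the listed DNA strand with its complement, in 1x NNE buffer (500 mM NaCl, pH 7.0) with 1x EvaGreen. ΔH and ΔS come from a Van't Hoff linear fit of 1/Tm against ln(CT/4) over 1-20 uM, using HRM Tm values.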
# [3] = duplex formation free energy ΔG50 (Van't Hoff fit of HRM Tm); higher = less stable duplex; conditions: temperature for dG: 50 °C, NaCl: 500 mM (unadjusted)
# Description: as §1
# [4] = duplex formation entropy ΔS (Van't Hoff fit of HRM Tm); higher = smaller entropy loss on duplex formation; conditions: temperature for dG: 50 °C, NaCl: 500 mM (unadjusted)
# Description: as §1
# [5] = duplex concentration 1 µM, backbone: PO-PO (both strands phosphodiester DNA)
# [6] = duplex concentration 1 µM, backbone: PS-PO (listed strand fully phosphorothioate, complement phosphodiester)
# [7] = duplex concentration 1 µM, backbone: PS-PS (both strands fully phosphorothioate)
# [8] = duplex concentration 2.5 µM, backbone: PO-PO (both strands phosphodiester DNA)
# [9] = duplex concentration 2.5 µM, backbone: PS-PO (listed strand fully phosphorothioate, complement phosphodiester)
# [10] = duplex concentration 2.5 µM, backbone: PS-PS (both strands fully phosphorothioate)
# [11] = duplex concentration 5 µM, backbone: PO-PO (both strands phosphodiester DNA)
# [12] = duplex concentration 5 µM, backbone: PS-PO (listed strand fully phosphorothioate, complement phosphodiester)
# [13] = duplex concentration 5 µM, backbone: PS-PS (both strands fully phosphorothioate)
# [14] = duplex concentration 7.5 µM, backbone: PO-PO (both strands phosphodiester DNA)
# [15] = duplex concentration 7.5 µM, backbone: PS-PO (listed strand fully phosphorothioate, complement phosphodiester)
# [16] = duplex concentration 7.5 µM, backbone: PS-PS (both strands fully phosphorothioate)
# [17] = duplex concentration 10 µM, backbone: PO-PO (both strands phosphodiester DNA)
# [18] = duplex concentration 10 µM, backbone: PS-PO (listed strand fully phosphorothioate, complement phosphodiester)
# [19] = duplex concentration 10 µM, backbone: PS-PS (both strands fully phosphorothioate)
# [20] = duplex concentration 15 µM, backbone: PO-PO (both strands phosphodiester DNA)
# [21] = duplex concentration 15 µM, backbone: PS-PO (listed strand fully phosphorothioate, complement phosphodiester)
# [22] = duplex concentration 15 µM, backbone: PS-PS (both strands fully phosphorothioate)
# [23] = duplex concentration 20 µM, backbone: PO-PO (both strands phosphodiester DNA)
# [24] = duplex concentration 20 µM, backbone: PS-PO (listed strand fully phosphorothioate, complement phosphodiester)
# [25] = duplex concentration 20 µM, backbone: PS-PS (both strands fully phosphorothioate)
# [26] = backbone: PO-PO (both strands phosphodiester DNA)
# [27] = backbone: PS-PO (listed strand fully phosphorothioate, complement phosphodiester)
# [28] = backbone: PS-PS (both strands fully phosphorothioate)
Sequence,"duplex melting temperature [1, 5] [°C]","duplex melting temperature [1, 6] [°C]","duplex melting temperature [1, 7] [°C]","duplex melting temperature [1, 8] [°C]","duplex melting temperature [1, 9] [°C]","duplex melting temperature [1, 10] [°C]","duplex melting temperature [1, 11] [°C]","duplex melting temperature [1, 12] [°C]","duplex melting temperature [1, 13] [°C]","duplex melting temperature [1, 14] [°C]","duplex melting temperature [1, 15] [°C]","duplex melting temperature [1, 16] [°C]","duplex melting temperature [1, 17] [°C]","duplex melting temperature [1, 18] [°C]","duplex melting temperature [1, 19] [°C]","duplex melting temperature [1, 20] [°C]","duplex melting temperature [1, 21] [°C]","duplex melting temperature [1, 22] [°C]","duplex melting temperature [1, 23] [°C]","duplex melting temperature [1, 24] [°C]","duplex melting temperature [1, 25] [°C]","duplex formation enthalpy ΔH [2, 26] [kcal/mol]","duplex formation enthalpy ΔH [2, 27] [kcal/mol]","duplex formation enthalpy ΔH [2, 28] [kcal/mol]","duplex formation free energy ΔG50 [3, 26] [kcal/mol]","duplex formation free energy ΔG50 [3, 27] [kcal/mol]","duplex formation free energy ΔG50 [3, 28] [kcal/mol]","duplex formation entropy ΔS [4, 26] [cal/mol/K]","duplex formation entropy ΔS [4, 27] [cal/mol/K]","duplex formation entropy ΔS [4, 28] [cal/mol/K]"
GATTGTATCATCGACATCACACTACC,73.69 ± 0.2,65.7 ± 0.68,56.3 ± 0.93,74.91 ± 0.39,67.05 ± 0.59,58.43 ± 0.52,76.04 ± 0.6,68.37 ± 0.47,59.81 ± 0.47,76.92 ± 0.26,68.77 ± 0.45,60.92 ± 0.21,77.78 ± 0.12,69.57 ± 0.28,61.49 ± 0.14,78.7 ± 0.1,70.36 ± 0.14,62.51 ± 0.2,79.317 ± 0.061,70.75 ± 0.1,63.05 ± 0.085,-127 ± 9.1,-137 ± 4.9,-99.2 ± 2.2,-18.3 ± 0.7,-16.1 ± 0.27,-11.7 ± 0.069,-336 ± 26,-375 ± 14,-271 ± 6.5
GAGCAGAAGGGGTTGT,63.5 ± 1.7,58.19 ± 0.23,49.7 ± 0.9,66.19 ± 0.54,60.88 ± 0.2,53.7 ± 0.54,68.16 ± 0.65,63.08 ± 0.15,55.97 ± 0.26,69.5 ± 0.73,64.37 ± 0.09,57.22 ± 0.19,70.88 ± 0.2,65.29 ± 0.073,57.97 ± 0.097,72.362 ± 0.008,66.57 ± 0.019,59.215 ± 0.054,73.62 ± 0.15,67.52 ± 0.11,60.08 ± 0.23,-68.3 ± 2.9,-70.9 ± 1.2,-63.9 ± 2.9,-12.4 ± 0.17,-11.48 ± 0.05,-9.823 ± 0.063,-173 ± 8.6,-184 ± 3.5,-167 ± 8.8
GTCATTGTGCTTTTGC,60.6,49.8 ± 0.38,45.054 ± 0.018,63.26 ± 0.54,52.96 ± 0.069,46.77 ± 0.14,65.29 ± 0.25,55.24 ± 0.19,48.65 ± 0.052,66.35 ± 0.14,56.46 ± 0.16,49.65 ± 0.053,67.27 ± 0.084,57.2 ± 0.17,50.58 ± 0.096,68.53 ± 0.17,58.37 ± 0.089,51.65 ± 0.14,69.4 ± 0.17,59.15 ± 0.096,52.76 ± 0.13,-78.5 ± 1.9,-69.8 ± 2.2,-79.9 ± 3.5,-12.27 ± 0.096,-9.798 ± 0.043,-8.432 ± 0.028,-205 ± 5.7,-186 ± 6.7,-221 ± 11
GATCTCTCTATCATCGTTTATTGGGTAT,73.08 ± 0.33,62.69 ± 0.48,55.1 ± 0.83,73.89 ± 0.35,64.3 ± 0.58,57.06 ± 0.4,74.81 ± 0.38,65.57 ± 0.42,58.33 ± 0.34,75.52 ± 0.2,66.23 ± 0.5,59.33 ± 0.081,76.276 ± 0.075,66.83 ± 0.22,59.89 ± 0.23,77.239 ± 0.047,67.61 ± 0.095,60.59 ± 0.19,77.914 ± 0.069,68.11 ± 0.096,61.27 ± 0.12,-141 ± 12,-122 ± 3.9,-109 ± 3,-18.9 ± 0.91,-14.3 ± 0.18,-11.5 ± 0.081,-377 ± 36,-335 ± 11,-301 ± 9
GTGAGCAGAAGGGGTT,64.4 ± 0.57,59.41 ± 0.21,51.01 ± 0.18,66.59 ± 0.48,62.57 ± 0.13,54.75 ± 0.25,68.752 ± 0.066,64.68 ± 0.15,56.88 ± 0.17,70.17 ± 0.27,66 ± 0.37,58.06 ± 0.31,71.2 ± 0.18,66.75 ± 0.18,58.956 ± 0.043,72.73 ± 0.15,68.05 ± 0.21,60.17 ± 0.3,73.73 ± 0.092,69.05 ± 0.47,60.93 ± 0.33,-71 ± 3.3,-71.4 ± 2,-66.3 ± 3,-12.7 ± 0.19,-11.81 ± 0.093,-10.06 ± 0.071,-180 ± 9.6,-184 ± 6,-174 ± 8.9
ACGGGTCGTTCCGTG,–,–,–,–,60.97 ± 0.26,56.07 ± 0.25,71.45 ± 0.49,63.292 ± 0.043,58.82 ± 0.085,73.32 ± 0.23,64.64 ± 0.1,60 ± 0.17,74.34 ± 0.26,65.62 ± 0.087,60.71 ± 0.21,75.77 ± 0.15,67.006 ± 0.054,61.81 ± 0.19,76.55 ± 0.13,68.03 ± 0.2,62.74 ± 0.27,-68.9 ± 5.2,-67 ± 0.95,-70.7 ± 4.1,-13.1 ± 0.37,-11.37 ± 0.043,-10.5 ± 0.13,-173 ± 15,-172 ± 2.8,-186 ± 12
AGGAGTGAATGAAATGG,59.4,54.5,43.7 ± 0.16,62.1 ± 0.68,57.08 ± 0.11,46.44 ± 0.17,64.64 ± 0.23,59.096 ± 0.041,48.39 ± 0.29,65.704 ± 0.056,60.13 ± 0.11,49.32 ± 0.19,66.73 ± 0.088,61.02 ± 0.073,50.27 ± 0.12,68.03 ± 0.15,62.13 ± 0.11,51.3 ± 0.13,69.03 ± 0.084,62.93 ± 0.16,52.15 ± 0.22,-69.7 ± 2.4,-78 ± 1.6,-73.4 ± 2.2,-11.71 ± 0.11,-10.85 ± 0.05,-8.33 ± 0.02,-179 ± 7,-208 ± 4.8,-201 ± 6.7
TTCTACATCCATCTTAATCCCA,–,59.7,49.9 ± 0.91,69.29 ± 0.65,60.3 ± 0.71,52.2 ± 0.78,70.58 ± 0.52,61.7 ± 1,54.2 ± 0.62,71.5 ± 0.27,63 ± 0.72,55.53 ± 0.29,72.3 ± 0.098,63.81 ± 0.27,56.28 ± 0.17,73.48 ± 0.21,64.85 ± 0.098,57.3 ± 0.083,74.36 ± 0.2,65.55 ± 0.094,57.98 ± 0.21,-99.4 ± 7.2,-90.6 ± 5.1,-78.1 ± 2.2,-14.7 ± 0.46,-12 ± 0.2,-9.752 ± 0.037,-262 ± 21,-243 ± 15,-212 ± 6.8
GTGAAACAATGCTGTAG,60.8,–,43.88 ± 0.29,62.87 ± 0.2,56.26 ± 0.25,46.82 ± 0.2,65.1 ± 0.46,58.51 ± 0.13,48.72 ± 0.15,66.14 ± 0.17,59.58 ± 0.12,49.72 ± 0.1,67.07 ± 0.17,60.43 ± 0.12,50.48 ± 0.19,68.31 ± 0.14,61.59 ± 0.25,51.63 ± 0.11,69.27 ± 0.11,62.36 ± 0.4,52.66 ± 0.18,-76.6 ± 3,-75.5 ± 2,-72.1 ± 2,-12.1 ± 0.14,-10.63 ± 0.061,-8.41 ± 0.018,-199 ± 8.8,-201 ± 6.2,-197 ± 6.4
